Target: Rabbit anti-human MDL-1 polyclonal antibodies
Assay: cell-based or functional assay

B1: human MDL-1 extracellular domain protein expressed in baculovirus (receptor)
chain: PQIFNKSNDGFTTTRSYGTVSQIFGSSSPSPNGFITTRSYGTVCPKDWEFYQARCFFLSTSESSWNESRDFCKGKGSTLAIVNTPEKLKFLQDITDAEKYFIGLIYHREEKRWRWINNSVFNGNVTNQNQNFNCATIGLTKTFDAASCDISYRRICEKNAK
  IC50 for inhibition of α-hMDL-1 pAb-induced β-galactosidase reporter signaling in the CD3zH912Z1 line: 0.1 nM

— patent US20070179094A1 (Bayer, published 2007)
